Target: human TIGIT-Fc (human) (UniProt Q495A1)
Assay: CD155 competition ELISA, single point

Chain of human TIGIT-Fc (human) (Q495A1 22-141 limits assumed): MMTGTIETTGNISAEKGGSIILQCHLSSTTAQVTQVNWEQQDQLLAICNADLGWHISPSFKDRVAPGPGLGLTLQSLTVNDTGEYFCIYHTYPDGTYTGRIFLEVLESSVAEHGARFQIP

B1: TIGIT-SC153 (Fc fusion)
VHH: EVQLVESGGGLVQPGGSLRLSCAASGNTFSGGFMGWFRQAPGKEREWVASVLRGGYTWYADSVKGRFTISADNSKNTAYLQMNSLKPEDTAVYYCARAGGCSGTSCYDGWFDPWGQGTLVTVSS
Q: B1 was tested. Which OD (450 nm) did it give?
A: 0.8 OD
